# Changes are numbered by the printed parent chain. Numbers in names are those of the source.
# B1: anti-IL-6 antibody, heavy chain I51A, G66D / light chain M32L, M50D, N52S, M88Q (antibody, human IgG1, V domains shown)
# VH: EVQLVESGGGLVQPGGSLRLSCAASGFTFSPFAMSWVRQAPGKGLEWVAKASPGGSWTYYSDTVTDRFTFSLDTSKSTAYLQMNSLRAEDTAVYYCARQLWGYYALDIWGQGTLVTVSS
# VL: DIQLTQSPSSLSASVGDRVTITCSASISVSYLYWYQQKPGKAPKLLIYDDSSLASGVPSRFSGSGSGTDFTLTISSLQPEDFATYYCQQWSGYPYTFGQGTKVEIK
# notes: Human IgG1
# B2: anti-IL-6 antibody, heavy chain I51D, G66D / light chain M32L, M50D, N52S, M88Q (antibody, human IgG1, V domains shown)
# VH: B1 VH with A51D
# VL: B1 VL
# notes: Human IgG1
# B3: anti-IL-6 antibody, heavy chain I51E, G66D / light chain M32L, M50D, N52S, M88Q (antibody, human IgG1, V domains shown)
# VH: B1 VH with A51E
# VL: B1 VL
# notes: Human IgG1
# B4: anti-IL-6 antibody, heavy chain I51F, G66D / light chain M32L, M50D, N52S, M88Q (antibody, human IgG1, V domains shown)
# VH: B1 VH with A51F
# VL: B1 VL
# notes: Human IgG1
# B5: anti-IL-6 antibody, heavy chain I51G, G66D / light chain M32L, M50D, N52S, M88Q (antibody, human IgG1, V domains shown)
# VH: B1 VH with A51G
# VL: B1 VL
# notes: Human IgG1
# B6: anti-IL-6 antibody, heavy chain I51H, G66D / light chain M32L, M50D, N52S, M88Q (antibody, human IgG1, V domains shown)
# VH: B1 VH with A51H
# VL: B1 VL
# notes: Human IgG1
# B7: anti-IL-6 antibody, heavy chain I51K, G66D / light chain M32L, M50D, N52S, M88Q (antibody, human IgG1, V domains shown)
# VH: B1 VH with A51K
# VL: B1 VL
# notes: Human IgG1
# B8: anti-IL-6 antibody, heavy chain I51L, G66D / light chain M32L, M50D, N52S, M88Q (antibody, human IgG1, V domains shown)
# VH: B1 VH with A51L
# VL: B1 VL
# notes: Human IgG1
# B9: anti-IL-6 antibody, heavy chain I51Q, G66D / light chain M32L, M50D, N52S, M88Q (antibody, human IgG1, V domains shown)
# VH: B1 VH with A51Q
# VL: B1 VL
# notes: Human IgG1
# B10: anti-IL-6 antibody, heavy chain I51R, G66D / light chain M32L, M50D, N52S, M88Q (antibody, human IgG1, V domains shown)
# VH: B1 VH with A51R
# VL: B1 VL
# notes: Human IgG1
# B11: anti-IL-6 antibody, heavy chain I51S, G66D / light chain M32L, M50D, N52S, M88Q (antibody, human IgG1, V domains shown)
# VH: B1 VH with A51S
# VL: B1 VL
# notes: Human IgG1
# B12: anti-IL-6 antibody, heavy chain I51T, G66D / light chain M32L, M50D, N52S, M88Q (antibody, human IgG1, V domains shown)
# VH: B1 VH with A51T
# VL: B1 VL
# notes: Human IgG1
# B13: anti-IL-6 antibody, heavy chain I51V, G66D / light chain M32L, M50D, N52S, M88Q (antibody, human IgG1, V domains shown)
# VH: B1 VH with A51V
# VL: B1 VL
# notes: Human IgG1
# B14: anti-IL-6 antibody, heavy chain I51W, G66D / light chain M32L, M50D, N52S, M88Q (antibody, human IgG1, V domains shown)
# VH: B1 VH with A51W
# VL: B1 VL
# notes: Human IgG1
# B15: anti-IL-6 antibody, heavy chain I51Y, G66D / light chain M32L, M50D, N52S, M88Q (antibody, human IgG1, V domains shown)
# VH: B1 VH with A51Y
# VL: B1 VL
# notes: Human IgG1
# B16: anti-IL-6 antibody, heavy chain S35A, G66D / light chain M32L, M50D, N52S, M88Q (antibody, human IgG1, V domains shown)
# VH: B1 VH with S35A, A51I
# VL: B1 VL
# notes: Human IgG1
# B17: anti-IL-6 antibody, heavy chain S35D, G66D / light chain M32L, M50D, N52S, M88Q (antibody, human IgG1, V domains shown)
# VH: B1 VH with S35D, A51I
# VL: B1 VL
# notes: Human IgG1
# B18: anti-IL-6 antibody, heavy chain S35E, G66D / light chain M32L, M50D, N52S, M88Q (antibody, human IgG1, V domains shown)
# VH: B1 VH with S35E, A51I
# VL: B1 VL
# notes: Human IgG1
# B19: anti-IL-6 antibody, heavy chain S35F, G66D / light chain M32L, M50D, N52S, M88Q (antibody, human IgG1, V domains shown)
# VH: B1 VH with S35F, A51I
# VL: B1 VL
# notes: Human IgG1
# B20: anti-IL-6 antibody, heavy chain S35G, G66D / light chain M32L, M50D, N52S, M88Q (antibody, human IgG1, V domains shown)
# VH: B1 VH with S35G, A51I
# VL: B1 VL
# notes: Human IgG1
# B21: anti-IL-6 antibody, heavy chain S35I, G66D / light chain M32L, M50D, N52S, M88Q (antibody, human IgG1, V domains shown)
# VH: B1 VH with S35I, A51I
# VL: B1 VL
# notes: Human IgG1
# B22: anti-IL-6 antibody, heavy chain S35K, G66D / light chain M32L, M50D, N52S, M88Q (antibody, human IgG1, V domains shown)
# VH: B1 VH with S35K, A51I
# VL: B1 VL
# notes: Human IgG1
# B23: anti-IL-6 antibody, heavy chain S35L, G66D / light chain M32L, M50D, N52S, M88Q (antibody, human IgG1, V domains shown)
# VH: B1 VH with S35L, A51I
# VL: B1 VL
# notes: Human IgG1
# B24: anti-IL-6 antibody, heavy chain S35P, G66D / light chain M32L, M50D, N52S, M88Q (antibody, human IgG1, V domains shown)
# VH: B1 VH with S35P, A51I
# VL: B1 VL
# notes: Human IgG1
# B25: anti-IL-6 antibody, heavy chain S35Q, G66D / light chain M32L, M50D, N52S, M88Q (antibody, human IgG1, V domains shown)
# VH: B1 VH with S35Q, A51I
# VL: B1 VL
# notes: Human IgG1
# B26: anti-IL-6 antibody, heavy chain S35T, G66D / light chain M32L, M50D, N52S, M88Q (antibody, human IgG1, V domains shown)
# VH: B1 VH with S35T, A51I
# VL: B1 VL
# notes: Human IgG1
# B27: anti-IL-6 antibody, heavy chain S35V, G66D / light chain M32L, M50D, N52S, M88Q (antibody, human IgG1, V domains shown)
# VH: B1 VH with S35V, A51I
# VL: B1 VL
# notes: Human IgG1
# B28: anti-IL-6 antibody, heavy chain S35W, G66D / light chain M32L, M50D, N52S, M88Q (antibody, human IgG1, V domains shown)
# VH: B1 VH with S35W, A51I
# VL: B1 VL
# notes: Human IgG1
# B29: anti-IL-6 antibody, heavy chain S35Y, G66D / light chain M32L, M50D, N52S, M88Q (antibody, human IgG1, V domains shown)
# VH: B1 VH with S35Y, A51I
# VL: B1 VL
# notes: Human IgG1
# B30: anti-IL-6 antibody, heavy chain T63A, G66D / light chain M32L, M50D, N52S, M88Q (antibody, human IgG1, V domains shown)
# VH: B1 VH with A51I, T63A
# VL: B1 VL
# notes: Human IgG1
# B31: anti-IL-6 antibody, heavy chain T65L, G66D / light chain M32L, M50D, N52S, M88Q (antibody, IgG1, V domains shown)
# VH: B1 VH with A51I, T65L
# VL: B1 VL
# notes: Full IgG1 (Expi293); VL = variant III
# B32: anti-IL-6 antibody, heavy chain T65P, G66D / light chain M32L, M50D, N52S, M88Q (antibody, IgG1, V domains shown)
# VH: B1 VH with A51I, T65P
# VL: B1 VL
# notes: as for B31
# B33: anti-IL-6 antibody, heavy chain T65R, G66D / light chain M32L, M50D, N52S, M88Q (antibody, IgG1, V domains shown)
# VH: B1 VH with A51I, T65R
# VL: B1 VL
# notes: as for B31
# B34: anti-IL-6 antibody, heavy chain T65S, G66D / light chain M32L, M50D, N52S, M88Q (antibody, IgG1, V domains shown)
# VH: B1 VH with A51I, T65S
# VL: B1 VL
# notes: as for B31
# B35: anti-IL-6 antibody, heavy chain T65V, G66D / light chain M32L, M50D, N52S, M88Q (antibody, IgG1, V domains shown)
# VH: B1 VH with A51I, T65V
# VL: B1 VL
# notes: as for B31
# B36: anti-IL-6 antibody, heavy chain T65W, G66D / light chain M32L, M50D, N52S, M88Q (antibody, IgG1, V domains shown)
# VH: B1 VH with A51I, T65W
# VL: B1 VL
# notes: as for B31
# B37: anti-IL-6 antibody, heavy chain T65Y, G66D / light chain M32L, M50D, N52S, M88Q (antibody, IgG1, V domains shown)
# VH: B1 VH with A51I, T65Y
# VL: B1 VL
# notes: as for B31
# Biological target: human IL-6 (human, UniProt P05231 30-212)
# Experiment: SPR (Biacore), supernatant antibody on Protein A chip, IL-6 flowed, 37 C
# Procedure: Antibodies were captured on a Protein A chip (GE) by injecting 1:20 cell supernatant dilutions at 10 μL/min for 60 seconds. […] The sensor chip was regenerated by a 60 seconds injection of 10 mM Glycine pH 1.7 at the flow rate of 50 μL/min. […] For this setup, 1 μg/mL of purified antibody was injected over a Protein A chip at 10 μL/min for 25 seconds. […] The sensor chip was regenerated by a 60 seconds injection of 10 mM Glycine pH 1.7 at flow rate of 50 μL/min. Data analysis for supernatant and purified samples were performed using BIAevaluation software (GE). All sensorgrams were double reference subtracted and fit using a 1:1 Langmuir binding model.
# Target sequence in this assay (P05231 30-212 limits assumed): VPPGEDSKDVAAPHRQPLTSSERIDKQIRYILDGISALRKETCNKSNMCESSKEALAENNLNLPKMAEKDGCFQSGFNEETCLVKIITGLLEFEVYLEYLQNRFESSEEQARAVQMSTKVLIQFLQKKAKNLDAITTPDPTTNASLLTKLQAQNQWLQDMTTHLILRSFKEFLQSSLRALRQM
Binder,Kd [nM],koff [s⁻¹],kon [M⁻¹ s⁻¹]
B1,0.559,0.000899,1.61e+06
B2,9.58,0.00799,834000
B3,2.14,0.00196,914000
B4,4.45,0.00611,1.37e+06
B5,0.652,0.000912,1.4e+06
B6,0.5,0.00104,2.07e+06
B7,0.349,0.000601,1.72e+06
B8,0.98,0.00161,1.64e+06
B9,0.575,0.00113,1.96e+06
B10,0.0357,5.8e-05,1.63e+06
B11,0.217,0.000401,1.85e+06
B12,0.233,0.000478,2.05e+06
B13,1.11,0.00195,1.76e+06
B14,4.84,0.00383,791000
B15,4.04,0.0247,6.1e+06
B16,0.657,0.00126,1.93e+06
B17,0.753,0.00177,2.35e+06
B18,0.867,0.00189,2.18e+06
B19,3.17,0.00484,1.53e+06
B20,0.609,0.000781,1.28e+06
B21,1.62,0.00147,904000
B22,2.64,0.00346,1.31e+06
B23,2.59,0.00243,942000
B24,27.1,0.00548,202000
B25,0.3,0.000626,2.09e+06
B26,0.498,0.000711,1.43e+06
B27,1.33,0.00137,1.03e+06
B28,34.6,0.00591,171000
B29,3.43,0.00404,1.18e+06
B30,0.268,0.000458,1.7e+06

# Biological target: T1, human IL-6 (human, UniProt P05231 30-212)
# T1 construct: IL-6 flowed over captured antibodies
# Experiment: SPR Biacore, supernatant Ab on Protein A chip, 37 C
# T1 sequence (P05231 30-212 limits assumed): as above
Binder,Kd [nM],koff [s⁻¹],kon [M⁻¹ s⁻¹]
B31,0.293,0.000446,1.53e+06
B32,0.601,0.00108,1.79e+06
B33,0.327,0.000532,1.63e+06
B34,0.31,0.000441,1.42e+06
B35,0.281,0.000551,1.96e+06
B36,0.322,0.000384,1.19e+06
B37,0.237,0.000367,1.55e+06

# Reference: patent publication US20240209076A1 (KODIAK SCIENCES, published 2024)
